Biological target: CD20
Assay: flow_cytometry
Conditions: 4.0 °C

| Substance | EC50 (pH 6.0) [nM] | EC50 (pH 7.4) [nM] |
| --- | --- | --- |
| 2OSL-Fab-L-Y32NY | 8 | – |
| 2OSL-Fab (WT) | – | 14 |
| 2OSL-Fab-H-Y97NY | 20 | – |
